From the PETadex activity labels

B1: unnamed (protein)
chain: MRKLLRRGPMRLLAVGLVIAVGVLATACDWRGPEPSDQLLTGTGPFGIGTISVPASAGFGGGTIYYPTGNPGPFAVVSFSPGFLEQSGAFPGWGNKLASHGFVAILFNTSNTGEFPDARSTEQRQALTYVINQGQNPSSPIFGLVDGNRTAVMGHSMGGGASLISAQADHTIDAVIPVAPWNGGTNFSGITSPTLVVACQSDSTAPVNSHASPFYNSIPSTTKKEYLSVAGGDHFCANDPSLVGGGNIGKYAVAFLKRWLDTDTRYDPWTCGASKATAGSVFNEVRSTCPW
B2: unnamed (protein)
chain: MHETNTRVRAGRACGCARAVRRVERGRVGRGRCLMRYRAFAWWWVCACLLLACGDTSGGNADETGPVTGQQPAAGASGQSASGTGGGTPAMPMSGGTSAGSAGRAGSAGMPPPAAGMGSMAGEGGTAGTDADAGASGVGGSAGGTSGVGGSAGSAGEGPDPEGPDPTTESASRAGPLNVESIPWTEFRNGPDFAGGTIWYPTDGEPPYPFVAIVPGFTAYESSIRSWGPFLASHNIVAITIDTNTTADQPPTRAAALLDALESVAAENSRSGSPLMDKLDESRQALMGWSMGGGGTLIAANRTPSLKAAISLCGWNPLGSYSMMTVPSLMFASLGDPLAGGQSQGFYRSIPDTTPKMLIEAGVADHFVANNPAYLNGLIGRYGLSWLKVFMVGDERYRQFLLEMPQGTTDYASNVE
B3: unnamed (protein)
chain: MRSSHVRIKKDKRATRMRSAPVSAREPTSARRVTHAQRADPLDRQRRQPMRFQQHASRLIKASILGSLVVLSAAATAQTNPFARGPNPTASALEATSGPFTVRNFTVSRPSGYGAGTVYYPTNAGGTVGAIAIVPGYTARQSSINWWGPRLASHGFVVITIDTNSTLDQPGSRSSQQMAALRQVVSLNGTSSSPIYNKVDTSRLGVMGWSMGGGGSLISAANNPSLKAAAPQAPWNTSTNFSSLTVPTLIFACENDSIAATRSHASPMYNSMRNNPRQYLEITRGSHSCANSGNSDRGLLGKKGVAWMKRYMDNDTRYTTFACQNPNTSRVSDFRVANCS
B4: unnamed (protein)
chain: MKRTLSLRRLWQAMAACASLCIAAAASAQVGPDPTSAGLEASAGPFTVSTSSVSSYVRGFGGGTIYYPSAAGQYGVVAISPGFTATQSSVAWLGRRLASHGLVVITINTNSVFDMPASRATQLMAALNHVVSGASSTIRSRVDSTRLAVSGHSMGGGGALIAAQNNPTLRASLPLTPWNNATNFDTVRVPTLIFGADGDTVASASSHARPFYASLPATTLKAYAELNNANHSTPNSTNTPIGRYSVAWMKRFVDADARYSPFLCGEPHRTYATPAVFDRYNQNCPY
B5: unnamed (protein)
chain: MATFNQLMHWSLAGLAVSMLGACGGGGGGGTPDAPPVMTPAPLPAPIPAPLPPLPPPPPAPTACTTSCRGADPTPASVEADAGPYAVATLALTQANGAAAMVYYPTGSSESFGAVVTMPGWDGDQSNLQWLGPRLASNGFVVINVDTPARRGDFPDARARFGVQALDQVVTLSATPGNALSGKVDAARLGMVGHSMGGGAALVAARDHPGLFKAVVPLSPWYDQATRDFPSATPALVFVCTGDMTASVAGYALPVYDSLRSHKAYVEAAHVPVPGGDAHNCVRTGVANRPKLGKTVVSWLKLWLDGDPRYLPFVCGAQNPGTDAGFTNVWRSSCPF
B6: unnamed (protein)
chain: MPDADTGRRANRCGAGNPAEGNPVITTRKRLVRRLAALVLVAFALVACDIKGPDPTDAILTASSGPFGVGTLAVPTSAGFGGGTIYYPTGVDGPFAVISVAPGFTETASAVAEWGPRLASHGFVTIVFNTSNTFENPSTRSTEQRQALTYTINQSNTAGSPIAGLVDGNRRGVAGHSMGGGGTLISEQADSTIRAGVPLAPWNTSPDFPDITVPTLFLACQNDSIAPVANHASPMYESIPATTHKSFVSFAGGDHFCANSPTGGSSNAGKFAVAFFKKFLDGDTRYDPWVCGASKPAVNSAINEVRSTCPF
B7: unnamed (protein)
chain: MRALLSPTRRRLMTRVSTLSTLPLRRVLCSLALSAVAAAASAQTAPPTSASLNATAGPLAVSSVAISGATGFGGGTIYYPQAAGSYGVIAISPGYGARGSSLAWLARRLATHGFVVAAINTTSTMDSPPSRGPQLMAALDHVVNKADANVRSRADGSRMAVMGHSAGGGGALVAARDNPTLKAAVALTPGSFGNFYSGVRVPTIIFGADGDTITPVTSQARPAYNSIPVTTPKAYGELNNATHLTPVSTNTPIGRYSVAWAKRFVDGDTRYS

The proteins below were run on BHET. Conditions: 120 h.

Plate clearing, not clears the plate:
B1
B2
B3
B4
B5
B6
B7
